Source: the supplement of paper PMC9112550, “Optimization of the antimicrobial peptide Bac7 by deep mutational scanning” (BMC Biology, 2022)

test system: Escherichia coli TOP10; experiment: shrunken log2 fold change of peptide-encoding DNA abundance (4.5 h post-induction vs induction); higher = less antimicrobial activity (less host growth inhibition); details: time post-induction: 4.5 h; library: site-saturation at positions 5, 18, 19, 20
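Further: peptides expressed intracellularly from a pBAD plasmid library in pooled LB shake-flask culture, induced with 0.3% L-arabinose, DNA abundance read by NGS, three biological replicates, DESeq2 with apeglm shrinkage.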

Sequence | shrunken log2 fold change
RRIRMRPPRLPRPRPRPSSPPRP | 0.16
RRIRMRPPRLPRPRPRPSVRPRP | -0.00857
RRIRMRPPRLPRPRPRPSYGPRP | -0.0196
RRIRMRPPRLPRPRPRPSYNPRP | -0.808
RRIRMRPPRLPRPRPRPSYPPRP | -0.412
RRIRMRPPRLPRPRPRPTALPRP | 0.33
RRIRMRPPRLPRPRPRPTCAPRP | 0.827
RRIRMRPPRLPRPRPRPTDEPRP | 0.116
RRIRMRPPRLPRPRPRPTEIPRP | -0.0223
RRIRMRPPRLPRPRPRPTFLPRP | -0.319
RRIRMRPPRLPRPRPRPTGYPRP | 0.0453
RRIRMRPPRLPRPRPRPTHVPRP | -0.00477
RRIRMRPPRLPRPRPRPTLNPRP | 0.299
RRIRMRPPRLPRPRPRPTLYPRP | 0.16
RRIRMRPPRLPRPRPRPTMNPRP | 0.0381
RRIRMRPPRLPRPRPRPTMWPRP | 0.274
RRIRMRPPRLPRPRPRPTNNPRP | -0.0518
RRIRMRPPRLPRPRPRPTNWPRP | 0.474
RRIRMRPPRLPRPRPRPTSNPRP | 0.00211
RRIRMRPPRLPRPRPRPTTNPRP | 0.403

Sequence | shrunken log2 fold change
RRIRMRPPRLPRPRPRPTVYPRP | -0.0666
RRIRMRPPRLPRPRPRPTWYPRP | -0.112
RRIRMRPPRLPRPRPRPVCLPRP | 0.174
RRIRMRPPRLPRPRPRPVDNPRP | 0.113
RRIRMRPPRLPRPRPRPVEEPRP | 0.292
RRIRMRPPRLPRPRPRPVERPRP | 0.015
RRIRMRPPRLPRPRPRPVFRPRP | -0.0467
RRIRMRPPRLPRPRPRPVGSPRP | 0.99
RRIRMRPPRLPRPRPRPVHHPRP | 0.00757
RRIRMRPPRLPRPRPRPVHTPRP | 0.213
RRIRMRPPRLPRPRPRPVKNPRP | 0.00715
RRIRMRPPRLPRPRPRPVKPPRP | 0.202
RRIRMRPPRLPRPRPRPVLFPRP | 0.289
RRIRMRPPRLPRPRPRPVNKPRP | -0.256
RRIRMRPPRLPRPRPRPVQHPRP | 0.415
RRIRMRPPRLPRPRPRPVSEPRP | -0.38
RRIRMRPPRLPRPRPRPVTEPRP | -0.0547
RRIRMRPPRLPRPRPRPVTHPRP | 0.0493
RRIRMRPPRLPRPRPRPVTIPRP | -0.0206
RRIRMRPPRLPRPRPRPVTKPRP | 0.253

Sequence | shrunken log2 fold change
RRIRMRPPRLPRPRPRPWADPRP | -0.108
RRIRMRPPRLPRPRPRPWAHPRP | -0.091
RRIRMRPPRLPRPRPRPWCPPRP | -0.101
RRIRMRPPRLPRPRPRPWDLPRP | 0.36
RRIRMRPPRLPRPRPRPWDPPRP | 0.287
RRIRMRPPRLPRPRPRPWFTPRP | -0.263
RRIRMRPPRLPRPRPRPWGKPRP | 0.0449
RRIRMRPPRLPRPRPRPWIHPRP | -0.0313
RRIRMRPPRLPRPRPRPWIRPRP | -0.167
RRIRMRPPRLPRPRPRPWKPPRP | -0.0836
RRIRMRPPRLPRPRPRPWLRPRP | 0.0433
RRIRMRPPRLPRPRPRPWMVPRP | -0.128
RRIRMRPPRLPRPRPRPWPDPRP | 0.592
RRIRMRPPRLPRPRPRPWPIPRP | -0.00141
RRIRMRPPRLPRPRPRPWPMPRP | 0.304
RRIRMRPPRLPRPRPRPWQEPRP | -0.107
RRIRMRPPRLPRPRPRPWSRPRP | 0.163
RRIRMRPPRLPRPRPRPWSSPRP | -0.145
RRIRMRPPRLPRPRPRPWVGPRP | 0.171
RRIRMRPPRLPRPRPRPWWTPRP | 0.0804
